According to the supplement of paper PMC10567573:

B1: USP39 (parent)
chain: TLSEAYIQIWKRRDNDETNQQGA
B2: EDARADD (parent)
chain: VEKVLRRWVDEEWPKRERGDPSRH

Variants of: B1
Experiment: protein stability index of a GFP-peptide fusion (GPS, HEK-293T) (PSI 1-6); higher = more stable
Conditions: c terminus: native
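Note: lentivirally expressed fusions sorted by FACS into six bins by GFP to DsRed ratio, PSI derived from sequencing read proportions per bin multiplied by bin number.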

Protein stability index: each site, then its substitutions
T1: R 2.79 | D 2.35 | Y 1.78 | C 2.34 | I 2.31 | Q 2.32 | A 2.37 | S 2.54 | M 2.66 | E 2.59 | N 2.99 | K 2.36 | G 3.34 | V 2.07 | F 2.16 | P 2.54 | H 1.99
E4: C 1.73 | I 1.96 | K 2.4 | A 2.46 | G 2.23 | F 2.09 | D 2.56 | L 2.49 | M 2.09 | H 2.28
S3: Y 1.98 | N 2.2 | P 3.01 | E 2.95 | K 2.68 | L 3.01 | M 2.01 | R 2.78 | Q 2.38 | I 2.3 | A 3.23 | F 2.14 | D 3.55 | C 2.38 | V 1.11 | G 2.32 | W 2.32 | H 2.5 | T 2.65
L2: Y 2.12 | W 2.63 | M 2.98 | I 2.77 | P 2.6 | D 3.46 | V 2.73 | T 2.72 | A 2.8 | R 2.85 | H 3.1 | F 2.51 | G 3.77 | N 3.33 | Q 3.35 | E 3.08 | S 3.08 | K 2.74 | C 2.32

Variants of: B2
Experiment: as above
Conditions: c terminus: a fixed tail appended

Protein stability index, by site and new letter:
P21: G 3.02 | L 2.5 | I 2.36 | M 2.39 | N 3.21 | A 3.34 | Q 3.07 | D 3.57 | T 2.68 | Y 2.34 | S 3.25 | W 1.89 | V 2.19 | H 2.52 | K 3.46 | C 2.51 | R 2.4 | E 3.51 | F 2.28
D20: W 2.61 | T 3.07 | A 3.45 | F 2.35 | K 3.07 | M 2.21 | L 2.5 | V 2.71 | S 2.68 | C 2.31 | H 2.81 | G 2.81 | P 2.04 | Q 2.5 | I 2.19 | E 2.63 | R 2.48 | Y 2.63 | N 2.94
R23: C 3 | V 2.44 | D 3.05 | Y 2.87 | H 3.38 | F 1.98 | T 2.58 | I 3.32 | A 2.83 | G 2.59 | L 2.66 | P 3.56 | N 2.81 | S 3.07 | Q 2.96 | E 3.71 | W 1.88 | M 2.45 | K 2.83
S22: C 2.2 | Y 2.52 | F 1.83 | E 3.63 | Q 2.96 | V 2.66 | H 2.55 | K 2.46 | R 3.51 | N 2.78 | G 2.31 | P 2.6 | A 2.48 | I 2.52 | M 2.17 | D 3.26 | W 1.84 | T 2.93
H24: T 2.96 | V 2.93 | D 3.06 | Y 2.41 | F 2.61 | L 3.12 | I 2.3 | C 2.13 | M 3.47 | P 2.37 | N 2.75 | A 2.59 | S 2.81 | W 1.84 | R 3.5 | Q 3.56 | K 3.04 | G 2.71 | E 2.48
G19: W 2.1 | Y 2.21 | P 2.89 | S 2.8 | V 2.11 | T 2.55 | R 2.64 | Q 2.73
